Source: US5985836A, “Alpha-1 proteinase inhibitor binding peptides” (Bayer Corporation, priority 1998, dated 1999)
Ends that are not written are not given here.

Target: T1, A1PI (Homo sapiens, UniProt P01009)
T1 construct: Human plasma is currently the only approved source of therapeutic AlPI
Assay: A1PI binding on peptide-resin column, injection of 1 mg A1PI in equilibration buffer
Details: for % of Total A1PI Eluted by Fraction (Based on Absorbance at 280 nm), 1M NaCl / % of Total A1PI Eluted by Fraction (Based on Absorbance at 280 nm), 2% Acetic Acid / % of Total A1PI Eluted by Fraction (Based on Absorbance at 280 nm), Flowthrough: 1 mg A1PI
Procedure: Confirmatory binding assays were performed in a column chromatographic format on a microbore HPLC using individual peptide sequences synthesized directly onto the Toyopearl 650 M Chelate resin which had been modified with Totda followed by an alanine residue (A-Totda-Toyopearl), at a final substitution density of 0.1 mmole/g resin. The resin was packed into 0.4×5 cm columns (Thomson, Springfield, Va.) and tested on the Michrom HPLC system (Michrom BioResources, Auburn, Calif.). The elution program for all trials utilized the following method. The column was pre-equilibrated with equilibration buffer (as above). 1 ml of sample was injected and allowed sufficient time to flowthrough the column using equilibration buffer. The column was then washed with step elutions of 1M NaCl and 3M NaCl in equilibration buffer. The column was exposed to equilibration buffer with 0.1M NaCl. Any remaining protein was eluted with elution buffer (2% by volume glacial acetic acid in water).
A Gilson FC204 fraction collector at the HPLC outlet collected individual eluates for further analysis. Fractions collected from the 2% acetic acid eluates were neutralized with 2M Tris, pH 10.5 to bring the pH to neutrality. The protein samples were reconstituted in equilibration buffer unless otherwise stated. The samples were analyzed by the integration of the absorbance at 280 nm or by immunonephelometry. The specific method of determination is presented for each figure.
Tables 2 and 3 present the elution profiles for 19 sequences based on the injection of 1 mg AlPI in equilibration buffer at 4° C. and 20° C., respectively. The columns were run at a constant flow rate of865 μl/min (413 cm/hr) or 523 μl/min (250 cm/hr). No dependence of the elution profile with flow rate was found. The Percent AlPI Eluted by Fraction represents the amount eluted in the flowthrough, 1M NaCl wash, and 2% acetic acid fractions relative to the total AlPI eluted. The percentages are based on either the integration of the peak areas at […]

[1] = 1 mg A1PI in equilibration buffer, 4° C.
[2] = 1 mg A1PI in equilibration buffer, 20° C.
[3] = VIWLVR N-terminal point mutations, 4° C.

T1 sequence (P01009 25-418): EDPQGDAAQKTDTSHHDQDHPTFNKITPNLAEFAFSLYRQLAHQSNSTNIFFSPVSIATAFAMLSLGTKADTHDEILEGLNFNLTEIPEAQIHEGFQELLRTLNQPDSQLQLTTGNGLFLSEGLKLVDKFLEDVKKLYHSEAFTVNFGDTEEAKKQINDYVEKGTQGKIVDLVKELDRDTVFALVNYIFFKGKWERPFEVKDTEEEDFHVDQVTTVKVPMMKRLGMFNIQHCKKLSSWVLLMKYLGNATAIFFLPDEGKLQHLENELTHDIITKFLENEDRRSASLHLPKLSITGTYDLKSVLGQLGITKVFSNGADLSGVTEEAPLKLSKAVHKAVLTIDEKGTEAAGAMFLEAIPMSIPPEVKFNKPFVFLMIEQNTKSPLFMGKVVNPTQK

Q: What does the source list for RRKYLW?
A: Percent A1PI Eluted by Fraction Based on Absorbance at 280 nm, 1M NaCl [1]: 92%; Percent A1PI Eluted by Fraction Based on Absorbance at 280 nm, 2% Acetic Acid [1]: 8%; Percent A1PI Eluted by Fraction Based on Absorbance at 280 nm, Flowthrough [1]: 0%; Percent A1PI Eluted by Fraction, 1M NaCl [2]: 82%; Percent A1PI Eluted by Fraction, 2% Acetic Acid [2]: 18%; Percent A1PI Eluted by Fraction, Flowthrough [2]: 0%

Q: What does the source list for “SDWLVR: point mutation of VIWLVR on Ala-Totda-Toyopearl (not fully specified (C-terminus))”?
A: % of Total A1PI Eluted by Fraction (Based on Absorbance at 280 nm), 1M NaCl [3]: 1%; % of Total A1PI Eluted by Fraction (Based on Absorbance at 280 nm), 2% Acetic Acid [3]: 1%; % of Total A1PI Eluted by Fraction (Based on Absorbance at 280 nm), Flowthrough [3]: 98%

Q: How did the “% of Total A1PI Eluted by Fraction (Based on Absorbance at 280 nm), 1M NaCl” value (shortened to “% of Total A1PI Eluted by Fraction … 1M NaCl”) [3] turn out when “SHWLVR: point mutation of VIWLVR on Ala-Totda-Toyopearl (not fully specified (C-terminus))” was run?
A: The value was 87%.

Q: And the “% of Total A1PI Eluted by Fraction (Based on Absorbance at 280 nm), 2% Acetic Acid” value [3]?
A: The value was 13%.

Q: What about the “% of Total A1PI Eluted by Fraction (Based on Absorbance at 280 nm), Flowthrough” value (“% of Total A1PI Eluted by Fraction … Flowthrough” below) [3] of the same substance?
A: The value was 0%.

Q: “SNWLVR: point mutation of VIWLVR on Ala-Totda-Toyopearl (not fully specified (C-terminus))” was tested. Which “% of Total A1PI Eluted by Fraction … 1M NaCl” value [3] did it give?
A: Its value is 95%.

Q: And the “% of Total A1PI Eluted by Fraction (Based on Absorbance at 280 nm), 2% Acetic Acid” value [3]?
A: Its value is 5%.

Q: What about the “% of Total A1PI Eluted by Fraction … Flowthrough” value [3] of the same substance?
A: The value was 0%.

Q: How did the “% of Total A1PI Eluted by Fraction … 1M NaCl” value [3] turn out when “SSWLVR: point mutation of VIWLVR on Ala-Totda-Toyopearl (not fully specified (C-terminus))” was run?
A: Its value is 94%.

Q: And the “% of Total A1PI Eluted by Fraction (Based on Absorbance at 280 nm), 2% Acetic Acid” value [3]?
A: The value was 6%.

Q: What about the “% of Total A1PI Eluted by Fraction … Flowthrough” value [3] of the same substance?
A: The value was 0%.

Q: For “V A F L V R: point mutation of VIFLVR, position 2 (VAFLVR)”, which “% of Total A1PI Eluted by Fraction … 1M NaCl” value (VIFLVR point mutations, 4° C.) is on record?
A: The value was 55%.

Q: What about the “% of Total A1PI Eluted by Fraction (Based on Absorbance at 280 nm), 2% Acetic Acid” value (VIFLVR point mutations, 4° C.) of the same substance?
A: Its value is 45%.

Q: What about the “% of Total A1PI Eluted by Fraction … Flowthrough” value (VIFLVR point mutations, 4° C.) of the same substance?
A: The value was 0%.

Q: What about the “% of Total A1PI Eluted by Fraction … 1M NaCl” value (VIFLVR point mutations, 20° C.) of the same substance?
A: The value was 8%.

Q: What about the “% of Total A1PI Eluted by Fraction (Based on Absorbance at 280 nm), 2% Acetic Acid” value (VIFLVR point mutations, 20° C.) of the same substance?
A: The value was 92%.

Q: And the “% of Total A1PI Eluted by Fraction … Flowthrough” value (VIFLVR point mutations, 20° C.)?
A: Its value is 0%.

Q: For “V H F L V R: point mutation of VIFLVR, position 2 (VHFLVR)”, which “% of Total A1PI Eluted by Fraction … 1M NaCl” value (VIFLVR point mutations, 4° C.) is on record?
A: The value was 35%.

Q: What about the “% of Total A1PI Eluted by Fraction (Based on Absorbance at 280 nm), 2% Acetic Acid” value (VIFLVR point mutations, 4° C.) of the same substance?
A: The value was 65%.

Q: What about the “% of Total A1PI Eluted by Fraction … Flowthrough” value (VIFLVR point mutations, 4° C.) of the same substance?
A: The value was 0%.

Q: Which “% of Total A1PI Eluted by Fraction … 1M NaCl” value (Trp position mutations, 4° C.) does the source give for “V I D L V R: VIWLVR with Trp at position 3 replaced by Asp (VIDLVR)” here?
A: Its value is 0%.

Q: And the “% of Total A1PI Eluted by Fraction (Based on Absorbance at 280 nm), 2% Acetic Acid” value (Trp position mutations, 4° C.)?
A: Its value is 0%.

Q: And the “% of Total A1PI Eluted by Fraction … Flowthrough” value (Trp position mutations, 4° C.)?
A: Its value is 100%.

Q: What about the “% of Total A1PI Eluted by Fraction … 1M NaCl” value (Trp position mutations, 20° C.) of the same substance?
A: The value was 0%.

Q: What about the “% of Total A1PI Eluted by Fraction (Based on Absorbance at 280 nm), 2% Acetic Acid” value (Trp position mutations, 20° C.) of the same substance?
A: Its value is 16%.

Q: What about the “% of Total A1PI Eluted by Fraction … Flowthrough” value (Trp position mutations, 20° C.) of the same substance?
A: Its value is 84%.
